{"source": "paper PMC9568614", "about": "(2022)", "key": {"[1]": {"target": "T1, recombinant human FcRn (FcRn alpha-chain with C-terminal BirA 10x-Histidine tag, with beta-2-microglobulin) (human, UniProt P55899 24-297; P61769 21-119)", "experiment": "SPR; pH 6.0"}, "[2]": {"target": "T1, recombinant human FcRn (FcRn …)", "experiment": "SPR; pH 7.4"}}, "data": [{"binder": "Fc-MST-HN (IgG1 Fc fragment with M252Y, S254T, T256E, H433K, N434F) (domain or fragment) DKTHTCPPCPAPELLGGPSVFLFPPKPKDTLYITREPEVTCVVVDVSHEDPEVKFNWYVDGVEVHNAKTKPREEQYNSTYRVVSVLTVLHQDWLNGKEYKCKVSNKALPAPIEKTISKAKGQPREPQVYTLPPSRDELTKNQVSLTCLVKGFYPSDIAVEWESNGQPENNYKTTPPVLDSDGSFFLYSKLTVDKSRWQQGNVFSCSVMHEALKFHYTQKSLSLSP", "values": [{"measurement": "Kd", "setting": "[1]", "value": 33, "unit": "nM"}, {"measurement": "Kd", "setting": "[2]", "value": 1220, "unit": "nM"}]}]}
